The results in this text go back to patent publication US20030124152A1.

The assay deals with Human collagen Type I (acid soluble) (human) (UniProt P02452). Briefly: cell-based or functional assay.
Chain of UniProt P02452 (P02452 162-1218 limits assumed, chain 1 of 2): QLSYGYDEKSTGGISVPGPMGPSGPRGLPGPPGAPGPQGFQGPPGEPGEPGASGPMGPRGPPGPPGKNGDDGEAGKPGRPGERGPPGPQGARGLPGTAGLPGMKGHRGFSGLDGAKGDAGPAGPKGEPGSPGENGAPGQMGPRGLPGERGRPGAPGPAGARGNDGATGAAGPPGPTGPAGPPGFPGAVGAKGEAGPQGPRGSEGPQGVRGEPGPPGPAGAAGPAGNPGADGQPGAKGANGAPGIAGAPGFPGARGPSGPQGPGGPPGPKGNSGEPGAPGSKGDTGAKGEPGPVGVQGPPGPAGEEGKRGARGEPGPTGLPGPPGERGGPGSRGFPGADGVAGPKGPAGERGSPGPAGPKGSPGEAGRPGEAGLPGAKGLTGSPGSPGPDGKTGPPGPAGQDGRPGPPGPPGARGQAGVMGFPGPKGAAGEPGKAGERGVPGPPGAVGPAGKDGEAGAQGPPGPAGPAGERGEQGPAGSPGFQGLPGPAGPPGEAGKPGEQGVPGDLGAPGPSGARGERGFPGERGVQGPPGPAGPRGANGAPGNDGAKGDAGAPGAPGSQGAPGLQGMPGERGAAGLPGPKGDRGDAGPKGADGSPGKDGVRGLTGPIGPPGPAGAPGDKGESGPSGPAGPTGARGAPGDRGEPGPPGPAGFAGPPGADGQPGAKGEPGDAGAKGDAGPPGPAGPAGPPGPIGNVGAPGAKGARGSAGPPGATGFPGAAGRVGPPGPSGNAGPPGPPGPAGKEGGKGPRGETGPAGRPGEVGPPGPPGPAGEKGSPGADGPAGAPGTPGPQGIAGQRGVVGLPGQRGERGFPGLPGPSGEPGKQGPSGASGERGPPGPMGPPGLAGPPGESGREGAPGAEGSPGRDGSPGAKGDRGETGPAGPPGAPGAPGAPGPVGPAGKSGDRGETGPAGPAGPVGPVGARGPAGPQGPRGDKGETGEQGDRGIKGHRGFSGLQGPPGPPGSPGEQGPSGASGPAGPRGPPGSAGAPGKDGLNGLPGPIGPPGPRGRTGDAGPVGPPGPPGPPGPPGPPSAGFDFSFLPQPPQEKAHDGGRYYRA
Chain of UniProt P02452 (P08123 80-1119 limits assumed, chain 2 of 2, further chain): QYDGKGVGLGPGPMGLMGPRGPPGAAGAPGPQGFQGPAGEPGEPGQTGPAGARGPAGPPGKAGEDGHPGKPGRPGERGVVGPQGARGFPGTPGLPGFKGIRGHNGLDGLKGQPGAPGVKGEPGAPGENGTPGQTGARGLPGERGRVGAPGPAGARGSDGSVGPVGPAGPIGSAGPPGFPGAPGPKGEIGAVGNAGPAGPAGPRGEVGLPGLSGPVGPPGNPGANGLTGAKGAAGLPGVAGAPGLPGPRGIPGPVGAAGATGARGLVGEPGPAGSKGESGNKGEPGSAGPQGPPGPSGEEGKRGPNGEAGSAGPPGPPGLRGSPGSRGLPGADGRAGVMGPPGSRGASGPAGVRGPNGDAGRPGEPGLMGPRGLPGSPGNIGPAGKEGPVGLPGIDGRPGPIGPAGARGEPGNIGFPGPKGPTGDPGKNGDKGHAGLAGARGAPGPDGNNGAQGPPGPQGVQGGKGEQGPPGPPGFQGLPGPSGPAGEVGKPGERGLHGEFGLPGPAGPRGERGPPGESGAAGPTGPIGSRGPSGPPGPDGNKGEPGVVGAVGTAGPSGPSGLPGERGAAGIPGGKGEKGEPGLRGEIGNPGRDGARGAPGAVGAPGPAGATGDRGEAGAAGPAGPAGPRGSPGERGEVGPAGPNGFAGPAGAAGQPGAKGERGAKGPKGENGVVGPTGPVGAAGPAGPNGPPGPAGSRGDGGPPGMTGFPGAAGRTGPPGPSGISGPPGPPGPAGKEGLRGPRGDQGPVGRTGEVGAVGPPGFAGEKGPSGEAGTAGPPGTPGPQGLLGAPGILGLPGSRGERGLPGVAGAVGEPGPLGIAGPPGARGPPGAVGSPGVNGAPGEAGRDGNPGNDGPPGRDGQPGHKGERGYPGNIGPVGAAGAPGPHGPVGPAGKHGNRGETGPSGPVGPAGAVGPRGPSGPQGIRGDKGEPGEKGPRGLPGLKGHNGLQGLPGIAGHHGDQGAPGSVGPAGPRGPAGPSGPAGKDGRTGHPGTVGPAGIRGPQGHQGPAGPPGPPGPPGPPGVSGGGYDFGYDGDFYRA

B1: human decorin core protein (HDCP) (protein)
chain: VEASGIGPEVPDDRDFEPSLGPVCPFRCQCHLRVVQCSDLGLDKVPKDLPPDTTLLDLQNNKITEIKDGDFKNLKNLHALILVNNKISKVSPGAFTPLVKLERLYLSKNQLKELPEKMPKTLQELRAHENEITKVRKVTFNGLNQMIVIELGTNPLKSSGIENGAFQGMKKLSYIRIADTNITSIPQGLPPSLTELHLDGNKISRVDAASLKGLNNLAKLGLSFNSISAVDNGSLANTPHLRELHLDNNKLTRVPGGLAEHKYIQVVYLHNNNISVVGSSDFCPPGHNTKKASYSGVSLFSNPVQYWEIQPSTFRCVYVRSAIQLGNYK
modifications: possible initiator Met
For the molecule B1, the Collagen Protection Assay, collagen band density, C + D + Z, 0 min (optical density/mm^2) is 10.4; the Collagen Protection Assay, collagen band density, C + D + Z, 30 min (optical density/mm^2) worked out at 9.37; the Collagen Protection Assay, collagen band density, C + D + Z, 60 min (optical density/mm^2) worked out at 5.89; the Collagen Protection Assay, collagen band density, C + D + Z, 90 min (optical density/mm^2) amounted to 1.67. Further, the Collagen Type I Degradation Rate (%), C + D + Z, 30 min stood at 9.49%; the Collagen Type I Degradation Rate (%), C + D + Z, 60 min was 37.1%; the Collagen Type I Degradation Rate (%), C + D + Z, 90 min stood at 71.6%.
